Assay results published in PMC5487319 (Scientific Reports, 2017).
Where a SMILES comes first, the peptide text is derived from it. The star is where a group is joined. HYNIC = NNc1ccc(C(=O)*)cn1

Key:
[1] = test system: A549 xenograft tumors; experiment: Therapeutic evaluation of ^188Re-peptides on A549 tumors; assay type: in vivo, mice; settings: 18.5 MBq i.v. at the first and seventh day
Procedure: Sixty mice were randomly separated into 6 groups once the tumor volumes reached approximately 0.1 cm^3: saline group, ^188ReO4 ^− group (18.5 MBq), non-labeled peptide group (4 μg per mouse) and ^188Re-labeled peptide group (18.5 MBq, 4 μg peptide per mouse) (n = 10). All drugs were administered i.v at the first and seventh day. Tumor size was determined weekly by measuring the length, width, and depth of the tumor using a caliper. Tumor volume was calculated as follows: tumor volume = (length × width × depth) × π/6. The mice were abandoned once dead or body weight loss was more than 20%.
At the end of the therapeutic period, mice were sacrificed, and the tumors were collected and fixed in 4% paraformaldehyde (PFA). Routine hematoxylin and eosin (H&E) staining and TdT-mediated dUTP nick-end labeling (TUNEL) staining were performed for necrosis and apoptosis analysis according to the manufacturer’s instructions.

[2] = test system: A549 tumor-bearing nude mice; experiment: SPECT planar imaging; settings: intravenous administration, 2 hour
Procedure: (§1) Five-week-old male BALB/c-nude mice were used for preparation of the xenograft tumor models. An A549 lung carcinoma-bearing model was established by subcutaneous injection of A549 cells at a concentration of 5 × 10^6 cells/mouse into the right front flank of the mice.
(§2) SPECT planar imaging was performed when the tumor volume was approximately 1 cm^3. The mice were anesthetized and placed in a supine position. Planar imaging was performed using a low-energy collimator at an energy peak of 140 keV at the indicated time after ^99mTc-labeled peptide (11.1 MBq, 150 μL) injection. The main imaging acquisition parameters were as follows: 128 × 128 matrix, window-width 20%, zoom 2.0, acquisition time 10 min. […] Then, 100,000 counts were acquired per image at each time indicated after the injection. For the blocking study, an excessive amount of HYNIC-peptide or EC-peptide (500 μg/mouse) was injected 30 min prior to radiolabeled peptide injection.

[3] = target: VEGFR-1 (Homo sapiens, UniProt P17948); experiment: Co-immunoprecipitation of GST-peptide and VEGFR-1; assay type: binding; settings: A549 cells, GST-peptide 80 or 185 nmol/L, 12 h, anti-GST or anti-VEGFR-1 antibody, Western blot
Procedure: GST-peptide was prepared and purified as previously described. Briefly, pGEX4T-1-peptide plasmid was obtained by peptide gene insertion into pGEX4T-1. Then, the plasmids were transfected into E. coli BL21 (DE3)-competent cells. Subsequently, GST-peptide fusion proteins were collected and purified by Glutathione Sepharose 4B. The obtained proteins were identified by protein electrophoresis.
A549 cells were seeded in 75 cm^2 bottles (1 × 10^4 counts/mL). After 24 h, GST-QKRKRKKSRKKH (80 nmol/L) or GST–RKRKRKKSRYIVLS (185 nmol/L) protein was added, respectively. After 12 h, the culture medium was removed and the cells were washed by PBS and then spalled with IP lysis buffer containing protease inhibitor (4 °C, 30 min). The protein concentration was determined with BCA methods. Protein (600 μg) from supernatant was used for immunoprecipitation (IP) assays with 1 μg anti-GST antibody or 1 μg anti-VEGFR-1 antibody in a reversed Co-IP experiment, while IgG served as the negative group. After washing 3× by TBST, IgG-HRP was added, shaking 2 h at RT, and last for enhanced chemiluminescence imaging.

[4] = in vivo; settings: male, BALB/c-nude, mouse, iv, 11.1 MBq, total radioactivity
Procedure: as §1, §2

[5] = target: VEGFR (UniProt P17948 27-1338); experiment: radioligand binding; receptor competition binding with 125I-VEGF165, peptide concentration varied; details in ref. 28
Chain of VEGFR (P17948 27-1338): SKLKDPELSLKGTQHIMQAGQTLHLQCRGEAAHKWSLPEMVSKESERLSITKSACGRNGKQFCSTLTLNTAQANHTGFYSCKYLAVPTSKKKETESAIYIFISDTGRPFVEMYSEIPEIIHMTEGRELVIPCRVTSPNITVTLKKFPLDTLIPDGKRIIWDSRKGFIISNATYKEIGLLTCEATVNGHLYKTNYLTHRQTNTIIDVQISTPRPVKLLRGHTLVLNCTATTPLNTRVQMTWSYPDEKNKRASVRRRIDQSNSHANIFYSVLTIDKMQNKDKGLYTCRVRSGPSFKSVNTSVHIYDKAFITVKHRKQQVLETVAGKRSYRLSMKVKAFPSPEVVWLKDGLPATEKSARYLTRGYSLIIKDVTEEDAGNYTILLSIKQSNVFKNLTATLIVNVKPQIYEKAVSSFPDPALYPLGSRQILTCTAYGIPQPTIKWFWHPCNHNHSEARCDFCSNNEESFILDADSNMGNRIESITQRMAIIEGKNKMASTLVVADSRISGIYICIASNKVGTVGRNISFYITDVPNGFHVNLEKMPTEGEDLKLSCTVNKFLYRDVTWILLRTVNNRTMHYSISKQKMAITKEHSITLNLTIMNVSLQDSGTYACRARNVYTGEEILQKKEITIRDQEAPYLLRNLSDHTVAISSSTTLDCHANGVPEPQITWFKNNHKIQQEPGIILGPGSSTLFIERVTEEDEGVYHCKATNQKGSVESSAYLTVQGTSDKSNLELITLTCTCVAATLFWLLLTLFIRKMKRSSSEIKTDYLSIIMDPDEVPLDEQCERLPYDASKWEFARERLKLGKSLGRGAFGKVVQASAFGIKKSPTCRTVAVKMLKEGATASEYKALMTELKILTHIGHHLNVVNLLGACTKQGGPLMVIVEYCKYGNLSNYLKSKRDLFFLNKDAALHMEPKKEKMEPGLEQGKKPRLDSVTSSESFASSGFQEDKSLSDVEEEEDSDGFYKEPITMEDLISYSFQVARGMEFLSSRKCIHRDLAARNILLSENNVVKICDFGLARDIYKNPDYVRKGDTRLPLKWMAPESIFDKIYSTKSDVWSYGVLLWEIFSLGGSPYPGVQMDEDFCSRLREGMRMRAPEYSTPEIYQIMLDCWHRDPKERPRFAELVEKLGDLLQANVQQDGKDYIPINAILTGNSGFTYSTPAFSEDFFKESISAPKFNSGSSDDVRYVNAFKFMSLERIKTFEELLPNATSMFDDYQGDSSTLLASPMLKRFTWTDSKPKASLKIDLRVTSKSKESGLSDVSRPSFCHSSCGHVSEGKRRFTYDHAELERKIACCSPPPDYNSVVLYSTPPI

Chain of VEGFR-1 (P17948 27-656 limits assumed): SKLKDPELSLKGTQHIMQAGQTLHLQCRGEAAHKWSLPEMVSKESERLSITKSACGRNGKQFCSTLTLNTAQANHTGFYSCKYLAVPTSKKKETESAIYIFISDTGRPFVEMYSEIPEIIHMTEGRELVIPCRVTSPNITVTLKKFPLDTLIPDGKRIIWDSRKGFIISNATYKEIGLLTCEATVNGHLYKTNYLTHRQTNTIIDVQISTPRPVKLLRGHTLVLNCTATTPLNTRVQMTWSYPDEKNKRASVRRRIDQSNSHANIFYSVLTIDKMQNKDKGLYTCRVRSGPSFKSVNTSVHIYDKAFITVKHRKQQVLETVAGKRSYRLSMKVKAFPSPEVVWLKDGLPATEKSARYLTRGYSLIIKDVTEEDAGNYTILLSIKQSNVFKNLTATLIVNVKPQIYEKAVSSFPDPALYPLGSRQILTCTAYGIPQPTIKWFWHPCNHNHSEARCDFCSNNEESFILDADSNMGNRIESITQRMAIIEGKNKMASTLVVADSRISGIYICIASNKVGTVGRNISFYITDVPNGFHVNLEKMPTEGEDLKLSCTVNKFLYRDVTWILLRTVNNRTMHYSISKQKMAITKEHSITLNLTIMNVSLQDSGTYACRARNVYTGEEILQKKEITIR

Q: Which “A549 tumor volume growth” value ([1]; compared with the saline group, n = 10) does the source give for `[Na+].[O]=[188Re](=[O])(=[O])[O-]` [Na^188ReO4] here?
A: Its value is “inhibited the tumor volume growth”.

Q: And the “apoptosis in non-necrotic tumor areas (TUNEL staining)” value ([1]; end of the therapeutic period)?
A: The value was “no significant difference in necrosis or apoptosis”.

Q: What about the “necrotic regions in tumor tissue (HE staining)” value ([1]; end of the therapeutic period) of the same molecule?
A: The value was “no significant difference in necrosis or apoptosis”.

Q: And the “survival of A549 tumor-bearing nude mice” value ([1]; n = 10)?
A: The value was “did not improve the survival duration”.

Q: And the “distribution of radioactivity on SPECT planar imaging” value [2]?
A: The value was “Large amount of radioactivity was observed in thyroids and stomach”.

Q: With “GST-RKRKRKKSRYIVLS [GST-peptide fusion protein from E. coli BL21 (DE3)]” as the molecule, how does the “binding to VEGFR-1 by Co-IP and reversed Co-IP” value [3] read?
A: Its value is “could combined to VEGFR-1”.

Q: With “GST-QKRKRKKSRKKH [GST-peptide fusion protein from E. coli BL21 (DE3)]” as the molecule, how does the “binding to VEGFR-1 by Co-IP and reversed Co-IP” value [3] read?
A: Its value is “could bind to VEGFR-1”.

Q: With `CC[C@H](C)[C@H](NC(=O)[C@H](Cc1ccc(O)cc1)NC(=O)[C@H](CCCNC(=N)N)NC(=O)[C@H](CO)NC(=O)[C@H](CCCCN)NC(=O)[C@H](CCCCN)NC(=O)[C@H](CCCNC(=N)N)NC(=O)[C@H](CCCCN)NC(=O)[C@H](CCCNC(=N)N)NC(=O)[C@H](CCCCN)NC(=O)[C@H](CCCNC(=N)N)NC(=O)c1ccc(NN)nc1)C(=O)N[C@H](C(=O)N[C@@H](CC(C)C)C(=O)N[C@@H](CO)C(=O)O)C(C)C` (99mTc complex, metal not drawn) [^99mTc-HYNIC-RKRKRKKSRYIVLS] ({HYNIC}-RKRKRKKSRYIVLS-OH) as the molecule, how does the tissue to tissue ratio at 0.5 h [4] read?
A: Its tissue to tissue ratio at 0.5 h is 4.05.

Q: And the tissue to tissue ratio at 1 h [4]?
A: The tissue to tissue ratio at 1 h was 4.02.

Q: And the tissue to tissue ratio at 2 h [4]?
A: The tissue to tissue ratio at 2 h was 3.76.

Q: And the tissue to tissue ratio at 4 h [4]?
A: Its tissue to tissue ratio at 4 h is 2.86.

Q: With `N=C(N)NCCC[C@H](NC(=O)[C@H](CCCCN)NC(=O)[C@H](CCC(N)=O)NC(=O)c1ccc(NN)nc1)C(=O)N[C@@H](CCCCN)C(=O)N[C@@H](CCCNC(=N)N)C(=O)N[C@@H](CCCCN)C(=O)N[C@@H](CCCCN)C(=O)N[C@@H](CO)C(=O)N[C@@H](CCCNC(=N)N)C(=O)N[C@@H](CCCCN)C(=O)N[C@@H](CCCCN)C(=O)N[C@@H](Cc1c[nH]cn1)C(=O)O` (99mTc complex, metal not drawn) [^99mTc-HYNIC-QKRKRKKSRKKH] ({HYNIC}-QKRKRKKSRKKH-OH) as the molecule, how does the tissue to tissue ratio at 0.5 h [4] read?
A: The tissue to tissue ratio at 0.5 h was 1.53.

Q: And the tissue to tissue ratio at 1 h [4]?
A: Its tissue to tissue ratio at 1 h is 3.42.

Q: What about the tissue to tissue ratio at 2 h [4] of the same molecule?
A: Its tissue to tissue ratio at 2 h is 4.31.

Q: What about the tissue to tissue ratio at 4 h [4] of the same molecule?
A: The tissue to tissue ratio at 4 h was 2.62.

B1: VEGF_(125-136) (peptide)
peptide: QKRKRKKSRYKS
notes: source: synthetic peptide (ChinaPeptides Co., Ltd., SPPS, HPLC purified)
Q: For B1, which IC50 [5] is on record?
A: Its IC50 is 464 nM.

B2: QKRKRKKSRKKH (peptide)
peptide: QKRKRKKSRKKH
notes: core motif RKRKKSR kept; also called non-labeled peptide; source: synthetic peptide (ChinaPeptides Co., Ltd., SPPS, HPLC purified)
Q: For B2, which IC50 [5] is on record?
A: The IC50 was 79.8 nM.

B3: RKRKRKKSRYIVLS (peptide)
peptide: RKRKRKKSRYIVLS
notes: as for B2
Q: With B3 as the molecule, how does the IC50 [5] read?
A: Its IC50 is 185 nM.
